Test results: paper PMC4168779

Each substance was assayed against Z protein fused to maltose binding protein, MBP-Z(N6C) (assay: cross-linking).

Row | Substance | PEPC efficiency (cross-linking efficiency)
1 | ZSPA affibody (Afb) with IetY at site 36 (designed binder) | 66%
2 | ZSPA affibody (Afb) with BrC6K at site 36, Afb(D36BrC6K) (designed binder) | 73%
3 | ZSPA affibody (Afb) with BetY at site 36 (designed binder) | 57%
